According to patent publication US20250026792A1, “SELF-ASSEMBLING PEPTIDES WITH HYALURONIC ACID BINDING DOMAINS AND METHODS OF USE THEREOF” (Northwestern University, priority 2022, published 2025):

Columns and labels:
elastin = biological target: T1, elastin (Bos taurus, UniProt P04985); experiment: ECM specificity binding test, elastin coating; parameters: species or system bovine; conditions: 5.0 mg/ml peptide, FIG. 4
T1 construct: purchased Sigma-Aldrich
T1 sequence (P04985 27-747): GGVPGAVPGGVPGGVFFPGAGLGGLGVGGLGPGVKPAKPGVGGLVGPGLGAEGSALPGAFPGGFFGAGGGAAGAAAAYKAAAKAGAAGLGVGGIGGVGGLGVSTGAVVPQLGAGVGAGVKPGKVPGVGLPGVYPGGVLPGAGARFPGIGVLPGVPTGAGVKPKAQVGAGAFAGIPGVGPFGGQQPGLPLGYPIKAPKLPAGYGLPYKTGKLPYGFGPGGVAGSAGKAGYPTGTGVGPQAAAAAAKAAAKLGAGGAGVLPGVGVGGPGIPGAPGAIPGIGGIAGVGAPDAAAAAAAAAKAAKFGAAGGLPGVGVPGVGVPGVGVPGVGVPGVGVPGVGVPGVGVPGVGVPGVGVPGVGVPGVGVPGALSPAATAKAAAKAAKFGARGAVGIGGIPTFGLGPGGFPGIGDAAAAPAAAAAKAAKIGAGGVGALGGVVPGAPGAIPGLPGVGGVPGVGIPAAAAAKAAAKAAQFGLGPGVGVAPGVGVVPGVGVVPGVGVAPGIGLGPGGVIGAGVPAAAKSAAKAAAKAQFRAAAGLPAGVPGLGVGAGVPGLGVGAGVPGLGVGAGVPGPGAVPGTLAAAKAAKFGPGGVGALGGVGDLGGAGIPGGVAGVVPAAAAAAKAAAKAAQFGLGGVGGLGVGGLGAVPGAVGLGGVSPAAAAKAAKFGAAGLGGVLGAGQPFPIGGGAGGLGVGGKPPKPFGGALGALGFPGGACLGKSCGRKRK
Experimental: (§1) Peptides were incubated 24 hours at 37° C. on collagens I-IV, elastin, hyaluronic acid, and Geltrex. Coatings (10 pig/cm^2) were previously dried overnight in milli-Q water. Overall significance was assessed using analysis of variance, with Tukey's multiple comparison post-hoc analysis between ECM groups where n=4.
(§2) Biotinylated peptides were custom synthesized by ABI Scientific, Inc. (Sterling, VA). Uranyl acetate and TEM grids were from Ted Pella, Inc (Redding, CA). Unless specified otherwise, all water used in these experiments was Milli-Q grade. HA (˜1 MDa), collagen types I (rat), II (chicken), III (human), and IV (mouse), elastin (bovine), deuterium oxide (D2O), acetic acid-d4, sodium acetate-d3, 3-(Trimethylsilyl)propionic-2,2,3,3-d6 (DSS-D6) acid sodium salt, and 2,2,2-trifluoroethanol (TFE) and were obtained from Sigma-Aldrich (St. Louis, MO). Streptavidin (Alexa Fluor 488 conjugate) and Geltrex were obtained from Thermo Fisher Scientific Inc. (Waltham, MA). Sodium hyaluronate (5 and 60 KDa) was purchased from Lifecore Biomedical LLC (Chaska, MN). In reference to terminology, N and C termini is used to describe the amino terminal (N) and the carboxyl terminal (C) of the peptide. The biotinylated peptides are used in every experiment.
(§3) Hyaluronic acid, collagens I, II, III, and IV, elastin, and Geltrex were coated onto 96-well black plates (medium binding affinity) at 10 μg/cm^2 and were dried in milli-Q water at room temperature. N-termini biotinylated peptides were added to coated plates at 0, 1, 2.5, 5 and 10 mg/ml overnight at 37° C. in phosphate buffered saline (PBS), pH 7.4, after which the plates were washed three times with PBS. Fluorescent streptavidin-488 (4 μg/mL) was added to each well and incubated at 37° C. temperature for 24 hours, then thoroughly washed with PBS. The plates were read with a fluorescence microplate reader for fluorescence intensity (Ex 490 nm, Em 525 nm). All data were normalized to the background fluorescence intensity of Streptavidin-488.

collagen type I = biological target: T2, collagen type I (Rattus norvegicus, UniProt P02454+P02466); experiment: ECM specificity binding test, collagen type I coating; conditions: 5.0 mg/ml peptide, FIG. 4
T2 construct: purchased Sigma-Aldrich
Experimental: as §1
as §2, with “Sodium hyaluronate (5 and 60 KDa) was purchased from Lifecore Biomedical LLC (Chaska, MN). In reference to terminology, N and C termini is used to describe the amino terminal (N) and the carboxyl terminal (C) of the peptide. The biotinylated peptides are used in every experiment.” left out
(§4) Hyaluronic acid, collagens I, II, III, and IV, elastin, and Geltrex were coated onto 96-well black plates (medium binding affinity) at 10 μg/cm^2 and were dried in milli-Q water at room temperature. […] The plates were read with a fluorescence microplate reader for fluorescence intensity (Ex 490 nm, Em 525 nm). All data were normalized to the background fluorescence intensity of Streptavidin-488.

[1] = system: extracellular matrix (ECM) components: Collagen type I, II, III and IV, elastin, hyaluronic acid and Geltrex; experiment: ECM specificity binding test, whole panel; conditions: 5.0 mg/ml peptide, FIG. 4
Experimental: as §1, §3

[2] = Circular dichroism (CD) of peptides; format: physicochemical; conditions: 20 mM Sodium Cacodylate; for Ellipticity ratio (222 nm/208 nm) / Ellipticity 208 nm / Ellipticity 222 nm: 1.25 mg/mL; for Ellipticity 208 nm / Ellipticity 222 nm: CD data given as [θ]M×10^−3; for wavelength Minimum of CD profile: 5.0 mg/mL
Experimental: Data is presented in ellipticity ([θ]M×10^−3) as a function of spectral wavelength (λ).
Sodium cacodylate (SC), 20 mM pH 7.4, without and with 20% TFE was used to reduce phosphate related background signal and enhance detected structures. Circular dichroism (CD) data were collected in millidegrees, 0, and converted to molar ellipticity, [θ]M, and are expressed in units of deg×cm^2×dmol^−1. Scan speeds and digital integration times were 500 nm/min and 1 second, respectively. The data on the Y axis of the CD plots is [θ]M×10^−3. […] Consequently, CD signals are reported in the 190-260 nm range.

collagen type IV = biological target: T3, collagen type IV (Mus musculus, UniProt P02463+P08122); experiment: ECM specificity binding test, collagen type IV coating; conditions: 5.0 mg/ml peptide, FIG. 4
T3 construct: purchased Sigma-Aldrich
Experimental: as §1
as §2, with “Sodium hyaluronate (5 and 60 KDa) was purchased from Lifecore Biomedical LLC (Chaska, MN). In reference to terminology, N and C termini is used to describe the amino terminal (N) and the carboxyl terminal (C) of the peptide. The biotinylated peptides are used in every experiment.” left out
as §4

T3 sequence (P02463 173-1669): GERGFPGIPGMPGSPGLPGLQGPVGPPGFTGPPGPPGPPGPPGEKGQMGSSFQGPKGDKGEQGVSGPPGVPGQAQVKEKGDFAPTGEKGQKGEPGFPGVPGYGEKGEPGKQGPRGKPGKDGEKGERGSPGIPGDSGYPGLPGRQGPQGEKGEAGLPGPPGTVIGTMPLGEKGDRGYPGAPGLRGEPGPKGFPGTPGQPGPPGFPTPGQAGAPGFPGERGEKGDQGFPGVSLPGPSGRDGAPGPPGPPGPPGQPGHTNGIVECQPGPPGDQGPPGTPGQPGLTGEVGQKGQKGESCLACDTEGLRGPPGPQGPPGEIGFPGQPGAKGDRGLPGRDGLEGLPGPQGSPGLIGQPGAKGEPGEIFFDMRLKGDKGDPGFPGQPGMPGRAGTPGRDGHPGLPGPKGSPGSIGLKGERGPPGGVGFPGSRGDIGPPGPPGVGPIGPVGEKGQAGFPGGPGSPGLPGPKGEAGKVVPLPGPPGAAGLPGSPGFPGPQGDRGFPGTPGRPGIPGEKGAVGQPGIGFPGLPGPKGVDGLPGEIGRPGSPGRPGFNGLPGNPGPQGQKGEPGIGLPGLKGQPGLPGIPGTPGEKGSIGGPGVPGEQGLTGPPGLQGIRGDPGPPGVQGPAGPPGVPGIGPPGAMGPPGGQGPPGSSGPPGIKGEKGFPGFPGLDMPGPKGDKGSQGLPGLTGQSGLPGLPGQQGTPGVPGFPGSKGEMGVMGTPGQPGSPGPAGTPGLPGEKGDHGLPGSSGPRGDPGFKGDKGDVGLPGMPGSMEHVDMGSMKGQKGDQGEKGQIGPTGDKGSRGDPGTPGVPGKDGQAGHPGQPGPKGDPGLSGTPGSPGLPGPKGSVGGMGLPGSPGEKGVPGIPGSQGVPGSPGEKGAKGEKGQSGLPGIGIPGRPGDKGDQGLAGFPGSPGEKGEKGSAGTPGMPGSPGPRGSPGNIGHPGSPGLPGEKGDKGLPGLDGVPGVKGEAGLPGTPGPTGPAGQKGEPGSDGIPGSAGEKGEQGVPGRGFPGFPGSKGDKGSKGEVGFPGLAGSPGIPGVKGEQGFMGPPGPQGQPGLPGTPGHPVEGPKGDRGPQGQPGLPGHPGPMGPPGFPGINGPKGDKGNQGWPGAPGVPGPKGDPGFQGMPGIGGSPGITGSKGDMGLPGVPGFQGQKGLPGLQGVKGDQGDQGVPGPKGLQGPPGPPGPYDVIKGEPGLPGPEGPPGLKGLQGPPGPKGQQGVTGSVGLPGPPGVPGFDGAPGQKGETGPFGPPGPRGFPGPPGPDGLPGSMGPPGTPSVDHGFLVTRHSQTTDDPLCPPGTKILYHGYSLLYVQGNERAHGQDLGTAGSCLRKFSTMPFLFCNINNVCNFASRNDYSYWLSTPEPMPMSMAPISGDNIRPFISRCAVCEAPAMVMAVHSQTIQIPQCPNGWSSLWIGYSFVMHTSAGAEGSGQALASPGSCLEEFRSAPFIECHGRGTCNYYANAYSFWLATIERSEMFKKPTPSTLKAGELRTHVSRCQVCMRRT
T3 sequence (P08122 29-1707 limits assumed): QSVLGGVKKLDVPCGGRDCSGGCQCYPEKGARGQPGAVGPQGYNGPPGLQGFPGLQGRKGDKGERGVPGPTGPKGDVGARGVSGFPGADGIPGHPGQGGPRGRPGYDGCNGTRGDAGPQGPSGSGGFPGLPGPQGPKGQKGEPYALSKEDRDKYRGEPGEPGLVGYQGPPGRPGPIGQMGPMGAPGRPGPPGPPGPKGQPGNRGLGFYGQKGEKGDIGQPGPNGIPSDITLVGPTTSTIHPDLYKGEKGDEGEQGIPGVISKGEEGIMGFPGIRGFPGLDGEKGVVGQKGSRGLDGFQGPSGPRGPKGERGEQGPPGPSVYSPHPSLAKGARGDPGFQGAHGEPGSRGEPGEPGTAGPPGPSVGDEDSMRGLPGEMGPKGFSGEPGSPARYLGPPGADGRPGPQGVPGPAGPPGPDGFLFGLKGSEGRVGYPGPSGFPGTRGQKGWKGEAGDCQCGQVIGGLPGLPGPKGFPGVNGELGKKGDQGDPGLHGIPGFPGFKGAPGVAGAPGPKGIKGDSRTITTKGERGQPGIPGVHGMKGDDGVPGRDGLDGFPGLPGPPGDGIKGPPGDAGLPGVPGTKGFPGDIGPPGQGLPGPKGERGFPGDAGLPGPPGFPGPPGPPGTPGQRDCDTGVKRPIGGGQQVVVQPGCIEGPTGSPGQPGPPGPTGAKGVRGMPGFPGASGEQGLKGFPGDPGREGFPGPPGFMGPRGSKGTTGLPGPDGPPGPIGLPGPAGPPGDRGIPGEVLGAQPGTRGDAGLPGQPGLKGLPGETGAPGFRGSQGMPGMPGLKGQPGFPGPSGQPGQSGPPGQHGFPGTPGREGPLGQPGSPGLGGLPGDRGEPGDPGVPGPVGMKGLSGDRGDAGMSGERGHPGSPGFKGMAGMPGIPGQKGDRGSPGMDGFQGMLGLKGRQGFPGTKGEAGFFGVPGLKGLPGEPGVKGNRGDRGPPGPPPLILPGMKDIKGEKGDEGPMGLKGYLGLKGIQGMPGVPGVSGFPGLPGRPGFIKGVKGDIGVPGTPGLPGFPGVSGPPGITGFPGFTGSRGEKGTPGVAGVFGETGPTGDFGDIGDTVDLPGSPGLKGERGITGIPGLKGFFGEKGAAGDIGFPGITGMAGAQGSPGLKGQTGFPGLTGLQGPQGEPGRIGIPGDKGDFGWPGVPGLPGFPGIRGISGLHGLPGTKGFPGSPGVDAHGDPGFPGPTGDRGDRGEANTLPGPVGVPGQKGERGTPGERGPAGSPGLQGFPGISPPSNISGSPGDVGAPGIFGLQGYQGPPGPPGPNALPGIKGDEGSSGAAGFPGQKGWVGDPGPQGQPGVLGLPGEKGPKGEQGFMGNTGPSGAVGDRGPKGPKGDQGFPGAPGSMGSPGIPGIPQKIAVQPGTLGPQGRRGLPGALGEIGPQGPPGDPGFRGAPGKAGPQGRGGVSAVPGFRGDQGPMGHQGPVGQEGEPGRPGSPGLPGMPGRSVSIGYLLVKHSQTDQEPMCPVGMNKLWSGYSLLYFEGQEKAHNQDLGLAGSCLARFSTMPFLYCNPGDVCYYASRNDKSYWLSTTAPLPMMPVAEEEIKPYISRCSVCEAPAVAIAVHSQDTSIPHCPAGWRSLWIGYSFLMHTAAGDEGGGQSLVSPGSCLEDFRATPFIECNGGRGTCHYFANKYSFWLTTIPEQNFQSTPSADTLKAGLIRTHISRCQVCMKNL

Sequence: KTKATVKIKNKQKSVNALKQKIVLLSK [Peptide 7c, 17x-3 variant]
- binding to elastin (elastin): predominantly
- binding to collagen type I (collagen type I): predominantly
- binding to the ECMs (for 17x-3: the ECMs other than hyaluronic acid) [1]: moderate binding
- Ellipticity ratio (222 nm/208 nm) [2]: 0.46
- Ellipticity 208 nm [2]: −131
- Ellipticity 222 nm [2]: −60.9
- wavelength Minimum of CD profile [2]: 225 nm
- Ellipticity ratio (222 nm/208 nm) ([2]; 20% TFE): 0.89
- Ellipticity 208 nm ([2]; 20% TFE): −290
- Ellipticity 222 nm ([2]; 20% TFE): −259
- wavelength Minimum of CD profile ([2]; 20% TFE): 224 nm
- binding to collagen type IV (collagen type IV): predominantly
